Data on four molecules can be found in patent publication US20190256592A1 (GENAGON THERAPEUTICS, published 2019).

Experiment [1] concerns the target Cleft Lip and Palate Transmembrane protein 1 (CLPTM1), human, native, in cells (human) (UniProt O96005). Put plainly: flow cytometry on permeabilised O-876 cells expressing native CLPTM1.
Experiment [2] has the same target. Put plainly: flow cytometry on permeabilised O-876 cells expressing native CLPTM1, 10x dilution series. For orientation: Flow cytometry measures light scatter and fluorescence of single cells or particles in a stream.
Experiment [3] deals with T1, Cleft Lip and Palate Transmembrane protein 1 (CLPTM1), human, native, in cells (human, UniProt O96005 2-669).
T1 construct: Native CLPTM1 as expressed by cells; also called CLPTM1 receptor
T1 sequence: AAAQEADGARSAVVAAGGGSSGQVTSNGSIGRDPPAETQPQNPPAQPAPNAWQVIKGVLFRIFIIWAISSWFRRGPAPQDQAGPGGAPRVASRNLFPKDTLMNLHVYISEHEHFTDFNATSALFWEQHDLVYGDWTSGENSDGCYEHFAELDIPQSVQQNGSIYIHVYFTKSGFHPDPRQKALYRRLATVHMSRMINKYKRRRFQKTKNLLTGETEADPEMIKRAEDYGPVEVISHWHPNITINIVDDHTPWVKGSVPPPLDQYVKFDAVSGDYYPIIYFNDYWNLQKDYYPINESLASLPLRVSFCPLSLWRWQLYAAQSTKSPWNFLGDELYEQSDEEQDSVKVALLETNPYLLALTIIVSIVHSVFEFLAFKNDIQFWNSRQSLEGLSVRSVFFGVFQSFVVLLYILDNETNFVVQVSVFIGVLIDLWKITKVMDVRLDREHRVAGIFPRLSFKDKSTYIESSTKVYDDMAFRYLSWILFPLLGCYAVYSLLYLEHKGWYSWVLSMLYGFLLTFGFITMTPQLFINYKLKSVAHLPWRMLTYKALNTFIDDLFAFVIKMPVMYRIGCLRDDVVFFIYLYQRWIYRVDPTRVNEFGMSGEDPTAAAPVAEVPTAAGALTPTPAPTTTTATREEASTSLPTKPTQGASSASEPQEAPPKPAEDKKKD
As to the kind of experiment: flow cytometry on permeabilised O-876 cells expressing native CLPTM1. The protocol:
(§1) Affinity of antibodies was determined by finding the half-maximal binding on the native target in a flow cytometry assay. Since the native target is found inside most cells and rarely on the cell surface, the assay was performed using plasma membrane-permeabilized cells, an intra-cellular staining protocol. Using the native target is more applicable when evaluating and comparing various antibodies as it is the true antigen to be bound in a therapeutic setting in vivo. 0-876 cells were permeabilized with BD-fix and permeabilization buffer (554722 BD-Biosciences). Antibody at various concentrations was incubated with cells for 30 minutes at +4 C, then washed twice with wash buffer (BD-Biosciences 554723). Secondary antibodies a-mouse IgG-PE (Molecular Probes) was used for mouse monoclonal antibodies according to manufacturer's instructions and a-rabbit-IgG-PE (Molecular Probes) for rabbit monoclonal antibody (Abcam ERP8800). Three washes followed and fluorescence intensity in cells was quantified by FACS Cantoll in PBS with cells in 2% FCS buffer.
(§2) The assay was performed on 0-876 cancer cell line.

The target in experiment [4] is T1, Cleft Lip and Palate Transmembrane …. As to the kind of experiment: flow cytometry on permeabilised O-876 cells expressing native CLPTM1; Kd defined by half maximal binding. The protocol: as §1, §2
A further experiment deals with T2, RRRFQKTKNLLTGETEADPEG (biotinylated; C-terminal glycine not from CLPTM1).
T2 construct: also called G11
T2 peptide: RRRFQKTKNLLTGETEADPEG
Put plainly: ELISA: biotinylated CLPTM1 peptide on streptavidin plate, GDF15 at 100 ng/ml, detected with goat anti-GDF15 and anti-goat-HRP. The protocol:
(§3) Biotinylated synthetic peptide fragments from CLPTM1 (JPT peptides, Germany) were immobilized in a streptavidin 96 well plate (#15500 Pierce) at 1 μM in PBS overnight at +4° C. Plate was washed 4 times in 300 μl PBS with 0.05% Tween-20 (wash buffer). The plate was blocked with PBS 1% BSA and 0.05% Tween-20 (blocking buffer) for 1.5 hours at room temperature then washed 4 times in wash buffer. GDF15 ligand (Abcam) was added in blocking buffer at 100 ng/ml and incubated at room temperature for 2 hours. The plate was then washed 8 times in 300 μl wash buffer with 2×NaCl. A GDF15 antibody as added at 1 μg/ml (R&D systems goat polyclonal) and incubated in block buffer for 1 hour at room temperature followed by washing with 4×300 μl wash buffer. HAF017 anti-goat-HRP antibody was added and incubated for 1 hour in blocking buffer followed by a wash. TMB substrate was added and stopped after 15 minutes with H2SO4. OD 450-620 was measured in an ELISA reader.
(§4) Polypeptides having sequences set forth in SEQ ID NOs:10-33 were assessed for binding to GDF15 (corresponding to the polypeptides indicated from left to right in FIG. 2 and shown in Table 1). These proteins were synthesised with a C-terminal glycine residue that is not present in the corresponding sequences from CLPTM1.
(In general: ELISA stands for enzyme-linked immunosorbent assay.)

The next experiment has as its target T3, SGQVTSNGSIGRDPPAETQPG (biotinylated; C-terminal glycine not from CLPTM1).
T3 construct: also called G2
T3 peptide: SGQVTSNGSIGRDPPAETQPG
Described as above. The protocol:
as §3, §4

The next experiment concerns the target T4, MIKRAEDYGPVEVISHWHPNG (biotinylated; C-terminal glycine not from CLPTM1).
T4 construct: also called G12
T4 peptide: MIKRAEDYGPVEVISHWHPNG
The description is as above. How it is done: as §3, §4

The target of the next experiment is T5, QNPPAQPAPNAWQVIKGVLFG (biotinylated; C-terminal glycine not from CLPTM1).
T5 construct: also called G3
T5 peptide: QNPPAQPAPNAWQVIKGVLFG
The experiment is described as above. How it is done:
as §3, §4

In the next experiment the target is T6, LWRWQLYAAQSTKSPWNFLGG (biotinylated; C-terminal glycine not from CLPTM1).
T6 construct: also called G19
T6 peptide: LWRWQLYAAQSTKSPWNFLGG
The experiment is described as above. How it is done:
as §3, §4

The target in experiment [5] is T7, CLPTM1 peptide G9 (residues 162-181 with C-terminal glycine) (human, biotinylated (position not given)).
T7 construct: Biotinylated synthetic peptide on a streptavidin plate; The C-terminal glycine is not in CLPTM1
T7 peptide: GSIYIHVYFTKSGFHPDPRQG
The experiment is described as above. The protocol: as §3, §4

Experiment [6] concerns the target T8, CLPTM1 peptide G20 (residues 292-311 with C-terminal glycine) (human, biotinylated (position not given)).
T8 construct: Biotinylated synthetic peptide on a streptavidin plate; The C-terminal glycine is not in CLPTM1
T8 peptide: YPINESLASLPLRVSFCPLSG
The experiment is described as above. How it is done: as §3, §4

The target of experiment [7] is T9, CLPTM1 peptide G21 (residues 273-292 with C-terminal glycine) (human, biotinylated (position not given)).
T9 construct: Biotinylated synthetic peptide on a streptavidin plate; The C-terminal glycine is not in CLPTM1
T9 peptide: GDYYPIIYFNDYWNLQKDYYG
Described as above. The protocol: as §3, §4

Experiment [8] addresses T10, CLPTM1 peptide G10 (residues 182-201 with C-terminal glycine) (human, biotinylated (position not given)).
T10 construct: Biotinylated synthetic peptide on a streptavidin plate; The C-terminal glycine is not in CLPTM1
T10 peptide: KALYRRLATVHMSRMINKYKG
The experiment is described as above. How it is done: as §3, §4

In a further experiment the target is T11, AAAQEADGARSAVVAAGGGSG (biotinylated; C-terminal glycine not from CLPTM1).
T11 construct: also called G1
T11 peptide: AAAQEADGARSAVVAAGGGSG
The experiment is described as above. How it is done:
as §3, §4

For a further experiment, the target named is T12, YEQSDEEQDSVKVALLETNPG (biotinylated; C-terminal glycine not from CLPTM1).
T12 construct: also called G18
T12 peptide: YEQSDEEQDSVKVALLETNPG
The experiment is described as above. The protocol:
as §3, §4

The target in the next experiment is T13, RIFIIWAISSWFRRGPAPQDG (biotinylated; C-terminal glycine not from CLPTM1).
T13 construct: also called G4
T13 peptide: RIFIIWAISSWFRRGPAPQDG
The experiment is described as above. How it is done: as §3, §4

Another experiment concerns the target T14, WQVIKGVLFRIFIIWAISSWG (biotinylated; C-terminal glycine not from CLPTM1).
T14 construct: also called G22
T14 peptide: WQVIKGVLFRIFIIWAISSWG
Described as above. How it is done:
as §3, §4

The next experiment has as its target T15, SALFWEQHDLVYGDWTSGENG (biotinylated; C-terminal glycine not from CLPTM1).
T15 construct: also called G7
T15 peptide: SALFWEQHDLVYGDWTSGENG
Described as above. The protocol: as §3, §4

The target of another experiment is T16, NDYWNLQKDYYPINESLASLG (biotinylated; C-terminal glycine not from CLPTM1).
T16 construct: also called G15
T16 peptide: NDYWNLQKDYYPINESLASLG
The experiment is described as above. The protocol: as §3, §4

Experiment [9] deals with T17, CLPTM1 peptide G14 (residues 262-281 with C-terminal glycine) (human, biotinylated (position not given)).
T17 construct: Biotinylated synthetic peptide on a streptavidin plate; The C-terminal glycine is not in CLPTM1
T17 peptide: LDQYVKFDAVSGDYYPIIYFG
Described as above. The protocol:
as §3, §4

A further experiment concerns the target T18, QAGPGGAPRVASRNLFPKDTG (biotinylated; C-terminal glycine not from CLPTM1).
T18 construct: also called G5
T18 peptide: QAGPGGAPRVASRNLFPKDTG
The description is as above. How it is done:
as §3, §4

The next experiment concerns the target T19, SDGCYEHFAELDIPQSVQQNG (biotinylated; C-terminal glycine not from CLPTM1).
T19 construct: also called G8
T19 peptide: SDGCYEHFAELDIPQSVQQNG
The experiment is described as above. How it is done:
as §3, §4

Experiment [10] has as its target T20, ….
T20 sequence (peptide, biotinylated; C-terminal glycine not from CLPTM1): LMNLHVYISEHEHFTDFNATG
Described as above.

In experiment [11] the target is T21, ….
T21 sequence (peptide, biotinylated; C-terminal glycine not from CLPTM1): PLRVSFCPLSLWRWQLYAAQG
The description is as above. The source holds these as a separate data set.

Experiment [12] deals with T22, ….
T22 sequence (peptide, biotinylated; C-terminal glycine not from CLPTM1): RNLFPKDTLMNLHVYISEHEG
Described as above. The source holds these as a separate data set.

For experiment [13], the target named is T23, ….
T23 sequence (peptide, biotinylated; C-terminal glycine not from CLPTM1): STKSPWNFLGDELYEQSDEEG
Described as above. The source holds these as a separate data set.

In experiment [14] the target is T24, ….
T24 sequence (peptide, biotinylated; C-terminal glycine not from CLPTM1): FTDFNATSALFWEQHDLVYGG
The experiment is described as above. This is another data set of the same source.

With “AbCam anti-CLPTM1 rabbit monoclonal antibody EPR8800 (RabMab)”, in [1], the percent of maximal binding at 1 µg/mL is more than 50%. In experiment [2], this molecule showed a percent of maximum binding at 0.1 µg/ml of more than 50%.

On to “Santa Cruz mouse anti-human CLPTM1 monoclonal antibody (G-7) (sc-374619)”, for which, in experiment [2], the percent of maximum binding at 1 µg/ml was less than 50%.

B1: Mouse monoclonal anti-CLPTM1 antibody 7G12 (antibody, V domains shown)
VH: QVQLQQSGTELVRPGTSVKVSCKASGYAFTNYLIEWVKQRPGQGLEWIGVINPGSGGTRYNEKFKGKATLTADKSSTTAHMQLSSLTSDDSAVYCARWGGNYSGYAMDYWGQGTSVTVSS
VL: QIVLTQSPVIMSASPGEKVTITCSASSSVSYMHWFQQKPGTSPKLWIYSTSNLASGVPARFSGSGSGTSYSLTISRMEAEDAATYYCQQRSSYPPTFGAGTKL
notes: Mouse IgG1 heavy chain, kappa light chain; also called mAb 7G12; 7G12hyb
By EC50 is commonly meant the concentration needed to bring the measured effect to its halfway point. The low end stands for a more potent agent, the high end for a less potent agent. By Kd is commonly meant the equilibrium constant for the complex coming apart. Molecule B1 returned a half-maximal effective concentration (EC50) in experiment [3] of less than 1 µg/mL. The molecule further registered a Kd in experiment [4] of less than 1 nM.

B2: Growth and Differentiation Factor 15 (GDF15) (ligand, UniProt Q99988 197-308, looked up)
chain: ARNGDHCPLGPGRCCRLHTVRASLEDLGWADWVLSPREVQVTMCIGACPSQFRAANMHAQIKTSLHRLKPDTVPAPCCVPASYNPMVLIQKTDTGVSLQTYDDLLAKDCHCI
notes: Bought protein (Abcam); also called MIC-1; GDF15 ligand (Abcam)
In the case of B2, the “OD ELISA 450nm - 620nm” value with RRRFQKTKNLLTGETEADPEG was 0.021 OD; with SGQVTSNGSIGRDPPAETQPG it was 0.009 OD; in the experiment with MIKRAEDYGPVEVISHWHPNG, 0.028 OD; in the experiment with QNPPAQPAPNAWQVIKGVLFG it was 0.042 OD; with LWRWQLYAAQSTKSPWNFLGG it was 0.033 OD; in experiment [5] it was 0.149 OD. The “OD ELISA 450nm - 620nm” value in experiment [6] was found to be 0.22 OD; in [7], 0.507 OD; in [8] it was 0.197 OD; with AAAQEADGARSAVVAAGGGSG, 0.022 OD; with YEQSDEEQDSVKVALLETNPG, 0.022 OD; with RIFIIWAISSWFRRGPAPQDG, 0.026 OD. In addition, the “OD ELISA 450nm - 620nm” value in the experiment with WQVIKGVLFRIFIIWAISSWG came to 0.023 OD; with SALFWEQHDLVYGDWTSGENG, 0.034 OD; with NDYWNLQKDYYPINESLASLG, 0.038 OD; in [9] it was 0.14 OD; with QAGPGGAPRVASRNLFPKDTG, 0.034 OD; in the experiment with SDGCYEHFAELDIPQSVQQNG, 0.024 OD. In addition, the OD ELISA 450nm - 620nm in experiment [10] is 0.058 OD; in experiment [11], 0.063 OD; in [12] it was 0.055 OD; in experiment [13] it was 0.053 OD; in experiment [14] it was 0.061 OD.
